In US12679878B2, “CRF2 receptor agonists and their use in therapy” (SANOFI, priority 2020, dated 2026):
Starred links: 1 amine or outer side, 2 acyl side, 3 side chain; linkers in the order of their positions; H or OH if unused. Non-standard residues stand in square brackets, D forms with d. Groups on a side chain read outwards from the residue. No end group written: not given here. *: point of attachment. C18 diacid = O=C(O)CCCCCCCCCCCCCCCCC(=O)*; γGlu = O=C(O)[C@H](CCC(=O)[*:2])N[*:1]; AEEA = NCCOCCOCC(=O)O; Aib = CC(C)(N)C(=O)O

T1: CRF1R receptor (anti-target) (UniProt P34998 24-415, limits assumed)
T1 sequence (looked up): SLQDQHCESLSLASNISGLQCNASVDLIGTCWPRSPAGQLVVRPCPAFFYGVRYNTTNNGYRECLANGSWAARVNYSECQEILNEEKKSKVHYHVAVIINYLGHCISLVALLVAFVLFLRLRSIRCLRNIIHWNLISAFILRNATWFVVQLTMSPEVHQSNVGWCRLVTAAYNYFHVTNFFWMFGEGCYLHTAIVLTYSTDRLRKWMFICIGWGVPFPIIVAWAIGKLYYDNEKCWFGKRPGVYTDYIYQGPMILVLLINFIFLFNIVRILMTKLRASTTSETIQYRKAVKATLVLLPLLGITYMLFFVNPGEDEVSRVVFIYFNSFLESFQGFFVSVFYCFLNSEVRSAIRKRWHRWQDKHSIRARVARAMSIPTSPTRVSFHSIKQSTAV


Biological target: T1, CRF1R receptor (anti-target)
Assay: cell-based or functional assay

EC50 [nM] 0% HSA (cAMP, HTRF) [nM] | Emax (%) (100% = Sauvagine at 100 nM) | Binder
> 100 | 2.3 | IVLSLDVPIKLK([AEEA-AEEA-γGlu-C18 diacid])QILLKQERQKKEREQAETNKQILAQV-NH2 (N-terminus assumed; SMILES CC[C@H](C)[C@H](N)C(=O)N[C@H](C(=O)N[C@@H](CC(C)C)C(=O)N[C@@H](CO)C(=O)N[C@@H](CC(C)C)C(=O)N[C@@H](CC(=O)O)C(=O)N[C@H](C(=O)N1CCC[C@H]1C(=O)N[C@H](C(=O)N[C@@H](CCCCN)C(=O)N[C@@H](CC(C)C)C(=O)N[C@@H](CCCCNC(=O)COCCOCCNC(=O)COCCOCCNC(=O)CC[C@H](NC(=O)CCCCCCCCCCCCCCCCC(=O)O)C(=O)O)C(=O)N[C@@H](CCC(N)=O)C(=O)N[C@H](C(=O)N[C@@H](CC(C)C)C(=O)N[C@@H](CC(C)C)C(=O)N[C@@H](CCCCN)C(=O)N[C@@H](CCC(N)=O)C(=O)N[C@@H](CCC(=O)O)C(=O)N[C@@H](CCCNC(=N)N)C(=O)N[C@@H](CCC(N)=O)C(=O)N[C@@H](CCCCN)C(=O)N[C@@H](CCCCN)C(=O)N[C@@H](CCC(=O)O)C(=O)N[C@@H](CCCNC(=N)N)C(=O)N[C@@H](CCC(=O)O)C(=O)N[C@@H](CCC(N)=O)C(=O)N[C@@H](C)C(=O)N[C@@H](CCC(=O)O)C(=O)N[C@H](C(=O)N[C@@H](CC(N)=O)C(=O)N[C@@H](CCCCN)C(=O)N[C@@H](CCC(N)=O)C(=O)N[C@H](C(=O)N[C@@H](CC(C)C)C(=O)N[C@@H](C)C(=O)N[C@@H](CCC(N)=O)C(=O)N[C@H](C(N)=O)C(C)C)[C@@H](C)CC)[C@@H](C)O)[C@@H](C)CC)[C@@H](C)CC)C(C)C)C(C)C) [peptide of SEQ ID NO: 96]
> 100 | 3.7 | IVLSLDVPIKLK([AEEA-AEEA-γGlu-C18 diacid])QILLKQERQKKQREQAKTN[Aib]QILAQV-NH2 (N-terminus assumed; SMILES CC[C@H](C)[C@H](N)C(=O)N[C@H](C(=O)N[C@@H](CC(C)C)C(=O)N[C@@H](CO)C(=O)N[C@@H](CC(C)C)C(=O)N[C@@H](CC(=O)O)C(=O)N[C@H](C(=O)N1CCC[C@H]1C(=O)N[C@H](C(=O)N[C@@H](CCCCN)C(=O)N[C@@H](CC(C)C)C(=O)N[C@@H](CCCCNC(=O)COCCOCCNC(=O)COCCOCCNC(=O)CC[C@H](NC(=O)CCCCCCCCCCCCCCCCC(=O)O)C(=O)O)C(=O)N[C@@H](CCC(N)=O)C(=O)N[C@H](C(=O)N[C@@H](CC(C)C)C(=O)N[C@@H](CC(C)C)C(=O)N[C@@H](CCCCN)C(=O)N[C@@H](CCC(N)=O)C(=O)N[C@@H](CCC(=O)O)C(=O)N[C@@H](CCCNC(=N)N)C(=O)N[C@@H](CCC(N)=O)C(=O)N[C@@H](CCCCN)C(=O)N[C@@H](CCCCN)C(=O)N[C@@H](CCC(N)=O)C(=O)N[C@@H](CCCNC(=N)N)C(=O)N[C@@H](CCC(=O)O)C(=O)N[C@@H](CCC(N)=O)C(=O)N[C@@H](C)C(=O)N[C@@H](CCCCN)C(=O)N[C@H](C(=O)N[C@@H](CC(N)=O)C(=O)NC(C)(C)C(=O)N[C@@H](CCC(N)=O)C(=O)N[C@H](C(=O)N[C@@H](CC(C)C)C(=O)N[C@@H](C)C(=O)N[C@@H](CCC(N)=O)C(=O)N[C@H](C(N)=O)C(C)C)[C@@H](C)CC)[C@@H](C)O)[C@@H](C)CC)[C@@H](C)CC)C(C)C)C(C)C) [peptide of SEQ ID NO: 89]
